Numbering of substitutions follows the chain as printed.

We go through 2 molecules from publication PMC5435683, “Crystal structure of TAZ-TEAD complex reveals a distinct interaction mode from that of YAP-TEAD complex” (Scientific Reports, 2017).

Data set [1] deals with the molecule itself. Nature of the data set: crystal structure; mTAZ (25-57) with mTEAD4 (210-427), co-expressed and co-purified; hanging drops, 6% PEG 10000, 0.05 M magnesium acetate, 0.1 M tri-sodium citrate pH 5.2, 20 °C; 2.9 Å; 4 TAZ and 4 TEAD in the asymmetric unit, two binding modes (1:1 and 2:2).
Data set [2] concerns the target T1, mTEAD4 (residues 210-427) Cys360Ser (mouse, UniProt Q62296 210-427, Cys360 replaced with serine).
T1 construct: TEAD4, mouse, residues 210-427, surface-exposed Cys360 replaced with serine; also called TEAD Cys360 to serine; source: E. coli BL21 (DE3), co-expressed with mTAZ (25-57) Asn33Cys, purified as a complex as the wild type
Put plainly: SEC; analytical gel filtration, Superdex 75 10/300 GL; control, cross-linked, and cross-linking reversed with 25 mM DTT for 1 hour at 25 °C. The following applies: both partners purified. A general note: Size exclusion chromatography separates by hydrodynamic size, large species first.

Data set [3] deals with the molecule itself. Put plainly: cross-linking + SEC-MALS; specific disulfide cross-linking of TAZ Asn33Cys with 1.5 mM CuCl2 and 5 mM phenanthroline, 1 hour at 25 °C, stopped with 50 mM EDTA; Superdex 75 5/150 GL, 20 mM Tris pH 8, 150 mM sodium chloride.

T1 sequence (Q62296 210-427 C360S): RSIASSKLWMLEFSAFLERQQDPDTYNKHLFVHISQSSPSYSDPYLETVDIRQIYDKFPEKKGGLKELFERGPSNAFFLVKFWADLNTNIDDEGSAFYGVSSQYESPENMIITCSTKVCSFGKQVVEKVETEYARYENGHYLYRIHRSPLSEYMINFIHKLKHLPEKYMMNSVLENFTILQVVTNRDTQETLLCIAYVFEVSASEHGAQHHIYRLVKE

B1: mTAZ (residues 25-57) (domain or fragment, mouse, UniProt Q9EPK5 25-57, looked up)
chain: DTDLEALFNSVMNPKPSSWRKKILPESFFKEPD
notes: TAZ (WWTR1), mouse, residues 25-57 (helix α1, 13-residue loop, helix α2); Cloned with mTEAD4 in a modified pETDuet-1 vector; also called mouse TAZ; not shown: His6, N-terminal, cleaved
Turning to B1, the binding result in data set [1] is “binds”.

B2: mTAZ (residues 25-57) Asn33Cys (domain or fragment, mouse, UniProt Q9EPK5 25-57, looked up)
chain: B1 chain with N9C
notes: TAZ (WWTR1), mouse, residues 25-57, Asn33 replaced with cysteine for disulfide cross-linking; In the cross-linked sample Cys33 of two copies is joined by a disulfide (copper phenanthroline); in the control and DTT samples it is not; also called TAZ Asn33Cys; source: E. coli BL21 (DE3), co-expressed with mTEAD4 (210-427) Cys360Ser, purified as a complex as the wild type; not shown: His6, …
Regarding B2, the stoichiometry N – broadly, a count of units in the complex or per binding partner – in data set [2] was determined as 1; in data set [3] it was 2.
